Results as given in patent US9873883B2, “Glyphosate resistant plants and associated methods” (Dow AgroSciences LLC, priority 2012, dated 2018).
Several values for one entry are separate records, joined by “and”; a condition that tells them apart may be missing. Equal values may be shown once.

Assays:
[1] = substrate: C=C(OP(=O)(O)O)C(=O)O; assay: purified protein, by the assay type; settings: other: pH 7.5, 1 mM S3P
[2] = substrate: C=C(OP(=O)(O)O)C(=O)O; assay: In vitro kinetic assay (inorganic phosphate production, malachite green); type: biochemical, Triticum aestivum; settings: other: pH 7.5, 1 mM S3P
Description: The following Class I enzymes: DGT-1 from Glycine max, DGT-3 from Brassica napus (GENBANK ACC NO: P17688), and DGT-7 from Triticum aestivum (GENBANK ACC NO: EU977181) were used as a comparison. The Class I EPSP synthase enzymes and mutant variants thereof were synthesized and evaluated. A mutation introduced into the plant EPSP synthase enzymes consisted of the Glycine to Alanine mutation made within the EPSP synthase enzyme at a similar location as that of the G96A mutation from the E. coli version of the enzyme. In addition, Threonine to Isoleucine and Proline to Serine mutations were introduced within these Class I EPSP synthase enzymes at analogous positions as that of amino acid 97 (T to I) and amino acid 101 (P to S) in the EPSP synthase of E. coli as described in Funke et al., (2009).
The location of the amino acid residue which was mutated from glycine to alanine is indicated by the first asterisk. The location of the amino acid residue which was mutated from threonine to isoleucine is indicated by the second asterisk. The location of the third amino acid residue which was mutated from proline to serine is indicated by the third asterisk. These mutations were introduced into different versions of DGT-1, DGT-3, and DGT-7. The different versions of the genes which contain the mutations are described in more detail below.
Additional constructs containing the dgt-1, dgt-3 and dgt-7 were synthesized. These constructs were used for in vitro testing of the dgt-1 v5, dgt-1 v6, dgt-1 v7, dgt-1 v8, dgt-3 v6, dgt-3 v7, dgt-3 v8, dgt-7 v5, dgt-7 v6, dgt-7 v7, and dgt-7 v8 gene sequences were outsourced to GeneArt for synthesis and cloning. The synthesized genes were cloned into the pET28 expression vector. The resulting constructions were labeled as pDAB102028 containing dgt-1 v5, pDAB102029 containing dgt-1 v6, pDAB102032 containing dgt-1 v7, pDAB102034 containing dgt-1 v8, pDAB100429 containing dgt-3 v6, pDAB100442 containing dgt-3 v7, pDAB100430 containing dgt-3 v8, pDAB102036 containing dgt-7 v5, pDAB102038 containing dgt-7 v6, pDAB102040 containing dgt-7 v7, and pDAB102042 containing dgt-7 v8.
Recombinant DGT proteins were overexpressed in Rosetta2™ (DE3) cells (Novagen, Madison, Wis.) from the constructs described above. A single colony was used to inoculate 50 mL starter cultures of LB containing chloramphenicol (25 μg/mL) and kanamycin (50 μg/mL) which were cultivated overnight at 37° C. The overnight cultures were used to inoculate 1 L of LB containing chloramphenicol (25 μg/mL) and kanamycin (50 μg/mL). The cultures were grown at 37° C. to an O.D.600=0.6 then placed in an ice water bath for 10 minutes. Expression of the target proteins was achieved by addition of IPTG to a final concentration of 500 μM. Induction was allowed to proceed overnight at 20° C. followed by harvesting via centrifugation at 8,000 rpm for 20 minutes. The cell pellets were stored at −80° C. until required for purification. All purification steps were carried out at 4° C.
Cell pellets from 1 L cultures were resuspended in 20-30 mL Buffer A (50 mM HEPES pH 7.5, 150 mM KCl, 2 mM DTT, 1 mM EDTA, 20 mM imidazole, and 5% glycerol). COMPLETE™ protease inhibitor cocktail (1 tablet/50 mL, Roche, Indianapolis, Ind.) and lysozyme (1 mg/mL, Sigma-Aldrich, St. Louis, Mo.) were then added and the suspension was stirred for 20 minutes. Cell lysis was performed using a Branson Sonifier 250 (3×60 second bursts) followed by removal of the cell debris by centrifugation at 16,000 rpm for 45 minutes. […]

| Protein | Km [1] | Km [2] | kcat/Km [2] |
| --- | --- | --- | --- |
| Glycine max (soybean) EPSP synthase DGT-1 v5, native, SEQ ID NO: 59 (Glycine max) (protein) MASVAAAEKPSTSPEIVLEPIKDFSGTITLPGSKSLSNRILLLAALSEGTTVVDNLLYSEDIHYMLGALRTLGLRVEDDKTTKQAIVEGCGGLFPTSKESKDEINLFLGNAGTAMRPLTAAVVAAGGNASYVLDGVPRMRERPIGDLVAGLKQLGADVDCFLGTNCPPVRVNGKGGLPGGKVKLSGSVSSQYLTALLMAAPLALGDVEIEIVDKLISVPYVEMTLKLMERFGVSVEHSGNWDRFLVHGGQKYKSPGNAFVEGDASSASYLLAGAAITGGTITVNGCGTSSLQGDVKFAEVLEKMGAKVTWSENSVTVSGPPRDFSGRKVLRGIDVNMNKMPDVAMTLAVVALFANGPTAIRDVASWRVKETERMIAICTELRKLGATVEEGPDYCVITPPEKLNVTAIDTYDDHRMAMAFSLAACGDVPVTIKDPGCTRKTFPDYFEVLERLTKH | 70 µM and 73.0 µM |  |  |
| Triticum aestivum (wheat) EPSP synthase DGT-7 v5, native (GENBANK EU977181), SEQ ID NO: 60 (Triticum aestivum) (protein) MATSVAAPAAPSGAEEVVLQPIREISGAVQLPGSKSLSNRILLLSALSEGTTVVDNLLNSEDVHYMLEALEALGLSVEADKVAKRAVVVGCGGRFPVEKDAQEEVKLFLGNAGTAMRPLTAAVVAAGGNATYVLDGVPRMRERPIGDLVVGLQQLGADADCFLGTNCPPVRINGKGGLPGGKVKLSGSISSQYLSSLLMAAPLALEDVEIEIIDKLISVPYVEMTLKLMERFGVTAEHSDSWDRFYIKGGQKYKSPGNAYVEGDASSASYFLAGAAITGGTVTVEGCGTTSLQGDVKFAEVLEMMGAKVTWTDTSVTVTGPPRQPFGRKHLKAVDVNMNKMPDVAMTLAVVALFADGPTAIRDVASWRVKETERMVAIRTELTKLGATVEEGPDYCIITPPEKLNITAIDTYDDHRMAMAFSLAACAEVPVTIRDPGCTRKTFPNYFDVLSTFVKN | 75.6 µM |  |  |
| Triticum aestivum (wheat) EPSP synthase DGT-7 variant DGT-7 v8 (T→I, P→S; TIPS) (Triticum aestivum; P172S/T168I) (protein, TIPS double mutant) MATSVAAPAAPSGAEEVVLQPIREISGAVQLPGSKSLSNRILLLSALSEGTTVVDNLLNSEDVHYMLEALEALGLSVEADKVAKRAVVVGCGGRFPVEKDAQEEVKLFLGNAGIAMRSLTAAVVAAGGNATYVLDGVPRMRERPIGDLVVGLQQLGADADCFLGTNCPPVRINGKGGLPGGKVKLSGSISSQYLSSLLMAAPLALEDVEIEIIDKLISVPYVEMTLKLMERFGVTAEHSDSWDRFYIKGGQKYKSPGNAYVEGDASSASYFLAGAAITGGTVTVEGCGTTSLQGDVKFAEVLEMMGAKVTWTDTSVTVTGPPRQPFGRKHLKAVDVNMNKMPDVAMTLAVVALFADGPTAIRDVASWRVKETERMVAIRTELTKLGATVEEGPDYCIITPPEKLNITAIDTYDDHRMAMAFSLAACAEVPVTIRDPGCTRKTFPNYFDVLSTFVKN |  | 60.5 µM |  |
| Triticum aestivum (wheat) EPSP synthase DGT-7 variant DGT-7 v6 (G→A) (Triticum aestivum; G167A) (protein) MATSVAAPAAPSGAEEVVLQPIREISGAVQLPGSKSLSNRILLLSALSEGTTVVDNLLNSEDVHYMLEALEALGLSVEADKVAKRAVVVGCGGRFPVEKDAQEEVKLFLGNAATAMRPLTAAVVAAGGNATYVLDGVPRMRERPIGDLVVGLQQLGADADCFLGTNCPPVRINGKGGLPGGKVKLSGSISSQYLSSLLMAAPLALEDVEIEIIDKLISVPYVEMTLKLMERFGVTAEHSDSWDRFYIKGGQKYKSPGNAYVEGDASSASYFLAGAAITGGTVTVEGCGTTSLQGDVKFAEVLEMMGAKVTWTDTSVTVTGPPRQPFGRKHLKAVDVNMNKMPDVAMTLAVVALFADGPTAIRDVASWRVKETERMVAIRTELTKLGATVEEGPDYCIITPPEKLNITAIDTYDDHRMAMAFSLAACAEVPVTIRDPGCTRKTFPNYFDVLSTFVKN |  | 538.2 µM | 16100 M⁻¹ s⁻¹ |
| Triticum aestivum (wheat) EPSP synthase DGT-7 variant DGT-7 v7 (G→A, P→S; GAPS) (Triticum aestivum; G167A/P172S) (protein, GAPS double mutant) MATSVAAPAAPSGAEEVVLQPIREISGAVQLPGSKSLSNRILLLSALSEGTTVVDNLLNSEDVHYMLEALEALGLSVEADKVAKRAVVVGCGGRFPVEKDAQEEVKLFLGNAATAMRSLTAAVVAAGGNATYVLDGVPRMRERPIGDLVVGLQQLGADADCFLGTNCPPVRINGKGGLPGGKVKLSGSISSQYLSSLLMAAPLALEDVEIEIIDKLISVPYVEMTLKLMERFGVTAEHSDSWDRFYIKGGQKYKSPGNAYVEGDASSASYFLAGAAITGGTVTVEGCGTTSLQGDVKFAEVLEMMGAKVTWTDTSVTVTGPPRQPFGRKHLKAVDVNMNKMPDVAMTLAVVALFADGPTAIRDVASWRVKETERMVAIRTELTKLGATVEEGPDYCIITPPEKLNITAIDTYDDHRMAMAFSLAACAEVPVTIRDPGCTRKTFPNYFDVLSTFVKN |  | 1103.2 µM | 14600 M⁻¹ s⁻¹ |
